Results from publication PMC3320567.

Target: STAT6 (pcDNA4-STAT6-mychis expression construct) (UniProt P42226)
Chain of UniProt P42226 (P42226 whole entry): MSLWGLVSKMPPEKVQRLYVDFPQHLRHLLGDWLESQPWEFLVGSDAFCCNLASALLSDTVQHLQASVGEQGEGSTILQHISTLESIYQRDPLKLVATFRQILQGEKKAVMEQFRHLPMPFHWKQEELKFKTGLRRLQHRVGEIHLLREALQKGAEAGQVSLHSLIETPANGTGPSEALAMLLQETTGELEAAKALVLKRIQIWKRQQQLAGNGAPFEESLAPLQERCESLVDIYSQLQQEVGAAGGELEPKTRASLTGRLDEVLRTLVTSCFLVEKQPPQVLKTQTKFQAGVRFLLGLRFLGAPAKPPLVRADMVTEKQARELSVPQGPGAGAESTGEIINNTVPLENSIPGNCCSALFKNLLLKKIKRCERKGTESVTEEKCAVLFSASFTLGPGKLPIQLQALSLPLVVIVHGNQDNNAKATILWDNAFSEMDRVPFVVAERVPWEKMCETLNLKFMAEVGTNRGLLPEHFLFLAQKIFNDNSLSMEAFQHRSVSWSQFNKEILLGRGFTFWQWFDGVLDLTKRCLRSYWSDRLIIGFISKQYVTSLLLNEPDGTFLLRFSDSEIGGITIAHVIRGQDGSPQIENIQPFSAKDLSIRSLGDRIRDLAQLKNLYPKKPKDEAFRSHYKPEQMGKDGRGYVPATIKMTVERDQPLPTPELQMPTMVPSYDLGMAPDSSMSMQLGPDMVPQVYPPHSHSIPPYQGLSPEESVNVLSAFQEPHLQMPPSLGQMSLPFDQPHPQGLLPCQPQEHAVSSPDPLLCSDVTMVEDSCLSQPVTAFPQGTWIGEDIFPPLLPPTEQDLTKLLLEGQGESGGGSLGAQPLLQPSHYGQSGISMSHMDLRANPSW

Substance HA-Tip-YYFY (Y127F) (natural protein) has an STAT6-responsive luciferase reporter in 293T cells transfected with Lck and Tip variants, against wildtype Tip (fold reduction) of 3.
